Experimental data published in patent US20140370037A1 (published 2014).

T1: human DLL3 antigen (human, UniProt Q9NYJ7 27-492, limits assumed)
T1 construct: also called immobilized human DLL3; recombinant human DLL3
T1 sequence (looked up): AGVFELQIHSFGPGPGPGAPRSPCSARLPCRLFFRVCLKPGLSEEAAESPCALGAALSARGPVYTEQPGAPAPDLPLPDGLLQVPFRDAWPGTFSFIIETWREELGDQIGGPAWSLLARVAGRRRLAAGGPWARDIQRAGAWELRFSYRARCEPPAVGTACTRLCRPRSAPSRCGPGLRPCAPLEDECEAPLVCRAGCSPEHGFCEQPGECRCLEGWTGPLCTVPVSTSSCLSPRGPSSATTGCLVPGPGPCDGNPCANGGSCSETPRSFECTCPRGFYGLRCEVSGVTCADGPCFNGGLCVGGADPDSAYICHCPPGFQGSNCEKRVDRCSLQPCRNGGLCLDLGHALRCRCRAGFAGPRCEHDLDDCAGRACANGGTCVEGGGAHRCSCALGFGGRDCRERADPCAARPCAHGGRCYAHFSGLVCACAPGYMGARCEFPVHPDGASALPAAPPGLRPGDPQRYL


Target: T1, human DLL3 antigen
Assay: ELISA or flow cytometry screen

Binder | binding result
SC16.104 (antibody, V domains shown, murine mAb) VH: QVQLKESGPDLVQPSQTLSLTCTVSGFSLTFYGVHWVRQPPGKGLEWVGTMGWDDKKYYNSALKSRLSISRDTSKNQVFLKLSSLQTEDTAMYYCTRGGTGFDYWGQGTTLTVSS VL: QIVLSQSPAILSASPGEKVTMTCRASSSVSYIHWYRQKPGSSPKPWIYATSNLASGVPARFSGSGSGTSYSLTISRVEAEDAATYYCQQWSSNPPTFGAGTKLELK | binds
SC16.58 (antibody, V domains shown, murine mAb) VH: DVQLVESGGGLVQPGGSRKLSCAASGFTFSSFGMHWVRQAPEKGLEWVAYISSGSSNIYYADTVKGRFTISRDNPKNTLFLQMTSLRSEDTAMYYCARGYYGNYDAMDYWGQGTSVTVSS VL: DIQMTQSPASLSSSVGETVTITCRASENIYSYLAWYQQKQGKSPQLLVYNAKTLAEGVPSRFSGSGSGTQFSLKINSLQPEDFGTYYCQHHYDSPLTFGAGTKLELR | binds
SC16.84 (antibody, V domains shown, murine mAb) VH: EVQLQQSGPELVKPGASMKISCKASGYSFTGYTMNWVKQSHGKNLEWIGLINPYNGGTTYNQKFKGKATLTVDKSSSTAYMELLSLTSEDSAVYYCALGYYGNYRRYFDVWGAGTTVTVSS VL: DIQMTQSPSSLSASLGGKVTITCKASQDIKKYIAWYQHKPGKGPRLLIHYTSTLEPGIPSRFSGSGSGRDYSFSISNLEPEDIATYYCLQYDILWTFGGGTKLEIK | binds
SC16.79 (antibody, V domains shown, murine mAb) VH: EVQLQQSGPELVKPGASVKISCKTSGYTFTEYTMHWVKQSHGKSLEWIGGINPNNGGTSYNQKFKGKATLTVDKSSSTAYMELRSLTSEDSAVYYCARGPAWFAYWGQGTLVTVSA VL: DIVMSQSPSSLAVSAGEKVTMSCKSSQSLLNSRTRKNYLAWYQQKPGQSPKLLIYWASTRESGVPDRFTGSGSGTDFTLTISSVQAEDLAVYYCKQSYNLYTFGGGTKLKIKR | binds
SC16.56 (antibody, V domains shown, murine mAb; also called anti-human/mouse DLL3 (SC16.56)) VH: QIQLVQSGPELKKPGETVKISCKASGYTFTNYGMNWVKQAPGKGLKWMAWINTYTGEPTYADDFKGRFAFSLETSASTASLQIINLKNEDTATYFCARIGDSSPSDYWGQGTTLTVSS VL: SIVMTQTPKFLLVSAGDRVTITCKASQSVSNDVVWYQQKPGQSPKLLIYYASNRYTGVPDRFAGSGYGTDFSFTISTVQAEDLAVYFCQQDYTSPWTFGGGTKLEIR | binds
SC16.67 (antibody, V domains shown, murine mAb) VH: EVQLVETGGGLVQPKGSLKLSCAVSAFTFTTYAMNWVRQAPGKGLEWVARIRNKSNNYATYYADSVKDRFTISRDDSQSMLYLQMNNLKIEDTAMYYCVFYYDYVYWGQGTLVTVSA VL: QAVVTQESALTTSPGETVTLTCRSSTGAVTTSNYANWIQEKPDHLFTGLIGGTNNRAPGVPARFSGSLIGDKAALTITGAQTEDEAIYFCGLWYSNHLVFGGGTKLTVL | binds
SC16.61 (antibody, V domains shown, murine mAb) VH: EVLLQRSGPDLVKPGASVTIPCKASGYTFTDYNMDWVKQSHGKSLEWIGNINTYNGGTIYNQKFKGKATLTVDKPSSTAYMELRSLTSEDTAVYYCARRLRYGGHYFDYWGQGTALTVSS VL: DIVMTQSTSSLAMSVGQKVTMSCKSSQSLLNSSNQKNYLAWYQQEPGQSPKLLVSFASTRESGVPDRFTGSGSGTDFTLTISGVQAEDLAVYYCQQHYSIPLTFGAGTKLELK | binds
SC16.80 (antibody, V domains shown, murine mAb) VH: EVQLQQSGPELVKPGGSKKISCKASGYSFTGYSMNWVKQSHGKNLEWIGLINPYSGGTIYNQKFKGKATLTVDKSSSTAYMELLSLTSEDSAVYYCARRSDYPLVYWGQGTLVTVSA VL: ETTVTQSPASLSMAIGEKVTIRCITSTDIDDDMIWYQQKPGEPPKLLISEGNTLRPGVPSRFSSSGYGTDFVFTIENMLSEDVADYYCLKRDDLPYTFGGGTQVEIKR | binds
SC16.8 (antibody, V domains shown, murine mAb) VH: QAQLQQSGAELVRPGTSVKVSCKASGYAFTNYLIEWVKQRPGQGLEWIGVINPGTGGTNYNENFKGKATLTADKSSSTAYMQLSSLTSDDSAVYFCARSPYDYHEGAMDYWGQGTSVTVSS VL: EIQMTQSPSSMSASLGDRITITCQATQDIVKNLNWYQQKPGKPPSFLIYYAIELAEGVPSRFSGSGSGSDYSLTISNLESEDFADYYCLQFYEFPFTFGAGTKLELK | binds
SC16.73 (antibody, V domains shown, murine mAb) VH: QVQLQQSGAELMKPGASVKISCKANGYTFSSYWIEWLRQRPGHGLEWIGEILPGSDNSNYNEKFKGKATFTADTSSNTAYMQLSSLTSEESAVYYCTRGLRRDGSYYYVMEHWGQGTSVTVSS VL: DIQMTQSPSSLSASLGERVSLTCRASQDIGYSLNWLQQEPDGTIKRLIYATSSLDSGVPKRFSGSRSGSDYSLTISSLESEDFVDYYCLQYASSPWTFGGGTKLEIK | binds
SC16.7 (antibody, V domains shown, murine mAb) VH: EVQLQQSGPELVKPGASVKISCKASGYSFTGYKMHWVKQSHVKSLEWIGRINPYNGATSYNQNFKDKATLTVDKSSSTAYMDLHSLTSEDSAVYFCARGDYRYDWFAYWGQGTLVTVSA VL: NIMMTQSPSSLAVSAGEKVTMSCKSSQSVLYSSNQKNYLAWYQQKPGQSPKLLIYWASTRESGVPDRFTGSGSGTDFTLTISTVQVEDLAVYYCHQYLSSWTFGGGTKLEIK | binds
SC16.62 (antibody, V domains shown, murine mAb) VH: EVMLVESGGDLVKPGGSLKLSCAASGFTFSSYAMSWVRQTPEKRLEWVAYISGGGDHIYYPDSVRGRFTISRDNAKDTLYLQMSSLRSEDTALYDCARVRDWYFDVWGAGTTVTVSS VL: DIKMTQSPSSMYASLGERVTITCKASQDINSFLSWFQRKPGKSPKTLIYRANRLVDGVPSRFTGSGSGQEFSLTISSLEYEDLGIYYCLQYDEFPYTFGGGTKLEIKR | binds
SC16.63 (antibody, V domains shown, murine mAb) VH: QVQLQQSGTELLRPGASVKISCKATGYTFSSYWMEWVKQRPGHGLEWIGEILPGSGTTQYNEKFKGKATFTADTSSNTAYMHLSSLTSEDSAVYYCARGTNSLWGQGTLVTVSA VL: QIVLTQSPAIMSASPGEKVTMTCSASSSVSYMYWYQQKSGTSPKRWIYDTSKLASGVPARFSGSGSGTSYSLTISSMEAEDAATYYCQQWSSNPYTFGGGTKLEIK | binds
SC16.72 (antibody, V domains shown, murine mAb) VH: EVQLQQSGPELVKPGASVKMSCKASGYTFTSYVMHWVKQKPGQGLEWIGYINPYNDGTKYNEKFKGKATLTSDKSSSTAYMELSSLTSEDSAVYYCARLRSRAMDYWGQGTSVTVSS VL: ENVLTQSPAIMSASLGEKVTMSCRASSSVNYMSWYQQKSDASPKLWIYYTSNLAPGVPARFSGSGSGNSYSLTISSMEGEDAATYYCQQFTSSPYTFGGGTKLEIKR | binds
SC16.65 (antibody, V domains shown, murine mAb) VH: QVTLKESGPGILQPSQTLSLTCSFSGFSLSTSGMGVGWIRQPSGKGLEWLALIWWDDVKRYNPALKSRLTISKDASSSQVFLKIASVDTADTATYYCARIASYDYDVVYAMDYWGQGTSVSVSS VL: QIVLTQSPALMSASPGEKVTMTCSVTSSVSYMYWYQQKPRSSPKPWIYLTSNLASGVPARFSGSGSGTSYSLTISSVEAEDAATYYCQQWRNNPFTFGSGTKVEIK | binds
SC16.57 (antibody, V domains shown, murine mAb) VH: EVKLVESGGDLVKPGGSLKLSCAASGFAFSSYDMSWVRQTPEKRLEWVATISSGGSYTYYPDSVKGRFTISRDNVRDTLYLQMSSLRSEDTALYYCARQAIGTYFDYWGQGTTLTVSS VL: DIVMTQSHKFMSISVGDRVSITCKASQDVSIFVAWYQQKPGQSPKLLIYSASYRYTGVPDRFTGSGSGTDFIFTISSVQAEDLAVYYCQQHYGTPFTFGSGTKLKIR | binds
SC16.78 (antibody, V domains shown, murine mAb) VH: EVKLVESGGGLVKPGGSLKLSCAASGFTFGRYVMSWVRQTPEKKLEWVASITSGGTTYYPDSVKGRFTISRDNARNILYLQMSSLRSEDTAMYYCARVYYHYDDIFAYWGQGTLVTVSA VL: DIKMTQSPSSMYASLGERVTITCKASQDINSYLSWFQQKPGRSPKTLIYRANRLVDGVPSRFSGSGSGQDYSLTISSLDYEDMGIYYCLQYDEFPFTFGSGTKLEIK | binds
SC16.106 (antibody, V domains shown, murine mAb) VH: QVQLKQSGPGLVAPSQSLFITCTVSGFSLTSYEINWVRQPPGKGLEWLGVIWTGGSTNYNSALISRLSISKDNSKSLVFLKMNSLQTDDTAIYYCVRGVYAMDYWGQGTSVTVSS VL: DIKMTQSPSSMYASLGERVTITCKASQDINSYLSWFQQKPGKSPKTLIYRANRLVDGVPSRFSGSGSGQDYSLTISSLEYEDMGIYYCLQYDEFPFTFGSGTKLEIK | binds
SC16.88 (antibody, V domains shown, murine mAb) VH: QVQLQQSGAELARPGASVKLSCKASGYTCTSYWMQWVKQRPGQGLEWIGAIYPGDGDTRYTQKFKGKATLTADKSSSTAYMQLSSLASEDSAVYYCARGRRTEAWFAYWGQGTLVTVSA VL: not shown | binds
SC16.81 (antibody, V domains shown, murine mAb) VH: QVQLKESGPVLVAPSQSLSITCTVSGFSLTSYGVHWVRQPPGKGLEWLGVIWAGGSTNYNSALMSRLSISKDNSKSQVFLKMNSLQTDDTAMYYCAKQGNFYAMDYWGQGTSVTVSS VL: QIVLTQSPAIMSASLGERVTLTCTASSSVSSSYLHWYQQKPGSSPKLWIYSTSNLASGVPTRFSGSGSGTSYSLRISSMEAEDAATYYCHQYNRSPLTFGAGTKLELK | binds
SC16.101 (antibody, V domains shown, murine mAb) VL: QIVLTQSPAIMSASLGERVTMTCTASSSVSSSYLHWYQQKPGSSPKLWIYSTSNLASGVPARFSGSESGTSYSLTISNMEAEDAATYYCHQYHRSPFTFGSGTKLEIK V domain: QVTLKESGPGILQPSQTLSLTCSFSGFSLSTSGMGVGWIRQPSGKGLEWLAHIWWDDVKRYNPALKSRLTISKDASSSQVFLKIASVDTAETATYYCAHILDRAYYFDYWGQGTTLTVTS | binds
